Several values for one entry are separate records, joined by “and”; a condition that tells them apart may be missing. Equal entries are not always repeated.
Legend:
[1] = target: T1, Dbp2 (full-length, Dbp2^1-546) (Saccharomyces cerevisiae, UniProt P24783); assay: coupled spectrophotometric ATPase assay; format: biochemical; settings: RNA-dependent: ssRNA R-S22 or RNA/DNA duplex R/D-D16; MgCl2 2 mM, ATP 1.5 mM, pH 7.5, 24 °C; turnover only
T1 construct: full-length 1-546; E. coli C2566H; His6-MBP tag cleaved with TEV, SP ion exchange; the smFRET mutant C141/C373 carries a C-terminal His6 tag

[2] = target: T2, Dbp2 (full-length, Dbp2^1-546) (Saccharomyces cerevisiae, UniProt P24783, R495A/R496A); assay: ATPase activity assay kit (free phosphate, […] nm); format: biochemical; settings: 16 bp RNA/DNA duplex 0.75 μM; MgCl2 2 mM, ATP 1.5 mM, pH 7.5, 24 °C; turnover only
T2 construct: full-length 1-546; E. coli C2566H; His6-MBP tag cleaved with TEV, SP ion exchange; the smFRET mutant C141/C373 carries a C-terminal His6 tag
T2 sequence (P24783 whole entry R495A/R496A): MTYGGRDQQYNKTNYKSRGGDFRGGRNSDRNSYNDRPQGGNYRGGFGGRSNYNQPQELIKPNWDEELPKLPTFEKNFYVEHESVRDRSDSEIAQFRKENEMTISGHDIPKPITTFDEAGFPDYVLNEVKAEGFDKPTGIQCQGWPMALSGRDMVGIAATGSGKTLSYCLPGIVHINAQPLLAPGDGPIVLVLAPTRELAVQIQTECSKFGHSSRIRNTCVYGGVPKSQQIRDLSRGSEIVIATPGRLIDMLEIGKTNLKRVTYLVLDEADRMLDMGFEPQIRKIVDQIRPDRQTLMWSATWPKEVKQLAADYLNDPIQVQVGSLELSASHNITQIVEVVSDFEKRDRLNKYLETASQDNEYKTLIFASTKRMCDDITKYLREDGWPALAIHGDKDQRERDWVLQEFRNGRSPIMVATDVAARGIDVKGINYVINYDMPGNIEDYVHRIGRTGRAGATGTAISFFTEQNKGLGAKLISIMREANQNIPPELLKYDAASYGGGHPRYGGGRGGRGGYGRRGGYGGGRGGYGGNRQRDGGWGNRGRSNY

[3] = target: T3, Dbp2 (full-length, Dbp2^1-546) (Saccharomyces cerevisiae, UniProt P24783, C168A/C206A/C219A); format: binding; settings: labelled protein immobilised via C-terminal His-tag antibody; no RNA; MgCl2 2 mM, pH 7.5
T3 construct: full-length 1-546; E. coli C2566H; His6-MBP tag cleaved with TEV, SP ion exchange; the smFRET mutant C141/C373 carries a C-terminal His6 tag
T3 sequence (P24783 whole entry C168A/C206A/C219A): as the sequence (P24783 whole entry R495A/R496A) above, with C168A, C206A, C219A, A495R, A496R counted along it

Dbp2 WT = Dbp2 WT (Saccharomyces cerevisiae, UniProt P24783 1-546); assay: fluorescence anisotropy; Anisotropy: 25 mM Tris-HCl pH 7.5, 20 mM NaCl/30 mM KCl, 2 mM MgCl2, 1 mM DTT, 5 nM labelled nucleic acid, 25 C, 5 min; EMSA: 25 mM Tris-HCl pH 7.5, 30 mM KCl; settings: protein: recombinant, tags: His6-MBP removed by TEV
Dbp2 WT, sequence (P24783 whole entry): as the sequence (P24783 whole entry R495A/R496A) above, with A495R, A496R counted along it

Dbp2 53-496 = Dbp2 53-496 (Saccharomyces cerevisiae, UniProt P24783 53-496); assay: as above; settings: protein: recombinant, tags: His6-MBP removed by TEV, label: 3' FAM
Dbp2 53-496, sequence (P24783 53-496): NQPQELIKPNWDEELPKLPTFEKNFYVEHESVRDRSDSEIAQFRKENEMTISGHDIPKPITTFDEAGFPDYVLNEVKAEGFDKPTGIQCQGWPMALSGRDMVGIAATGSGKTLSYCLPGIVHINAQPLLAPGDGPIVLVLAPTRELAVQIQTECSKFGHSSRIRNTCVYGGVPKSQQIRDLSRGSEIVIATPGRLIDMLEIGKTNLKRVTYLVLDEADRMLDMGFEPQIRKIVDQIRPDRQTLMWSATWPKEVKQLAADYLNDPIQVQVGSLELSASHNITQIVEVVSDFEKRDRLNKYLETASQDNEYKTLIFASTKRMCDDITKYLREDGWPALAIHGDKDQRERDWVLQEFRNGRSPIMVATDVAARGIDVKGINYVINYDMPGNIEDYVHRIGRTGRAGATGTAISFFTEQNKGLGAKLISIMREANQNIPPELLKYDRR

Dbp2 1-530 = Dbp2 1-530 (Saccharomyces cerevisiae, UniProt P24783 1-530); assay: as above; settings: protein: recombinant, tags: His6-MBP removed by TEV, label: 3' FAM
Dbp2 1-524 = Dbp2 1-524 (Saccharomyces cerevisiae, UniProt P24783 1-524); assay: as above; settings: protein: recombinant, tags: His6-MBP removed by TEV, label: 3' FAM
Dbp2 118-466 = Dbp2 118-466 (Saccharomyces cerevisiae, UniProt P24783 118-466); assay: as above; settings: protein: recombinant, label: 3' FAM
Dbp2 118-466, sequence (P24783 118-466): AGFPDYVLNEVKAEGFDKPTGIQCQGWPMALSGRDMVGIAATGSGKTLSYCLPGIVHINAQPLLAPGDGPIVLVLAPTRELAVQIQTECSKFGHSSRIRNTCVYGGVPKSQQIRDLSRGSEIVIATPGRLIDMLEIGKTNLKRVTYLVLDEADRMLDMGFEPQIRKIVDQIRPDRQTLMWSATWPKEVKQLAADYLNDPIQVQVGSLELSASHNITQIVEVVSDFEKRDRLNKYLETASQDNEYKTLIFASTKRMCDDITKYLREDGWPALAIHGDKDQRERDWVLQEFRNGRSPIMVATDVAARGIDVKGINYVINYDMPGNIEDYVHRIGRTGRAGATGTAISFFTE

Dbp2 1-514 = Dbp2 1-514 (Saccharomyces cerevisiae, UniProt P24783 1-514); assay: as above; settings: protein: recombinant, tags: His6-MBP removed by TEV, label: 3' FAM
Dbp2 1-514, sequence (P24783 1-514): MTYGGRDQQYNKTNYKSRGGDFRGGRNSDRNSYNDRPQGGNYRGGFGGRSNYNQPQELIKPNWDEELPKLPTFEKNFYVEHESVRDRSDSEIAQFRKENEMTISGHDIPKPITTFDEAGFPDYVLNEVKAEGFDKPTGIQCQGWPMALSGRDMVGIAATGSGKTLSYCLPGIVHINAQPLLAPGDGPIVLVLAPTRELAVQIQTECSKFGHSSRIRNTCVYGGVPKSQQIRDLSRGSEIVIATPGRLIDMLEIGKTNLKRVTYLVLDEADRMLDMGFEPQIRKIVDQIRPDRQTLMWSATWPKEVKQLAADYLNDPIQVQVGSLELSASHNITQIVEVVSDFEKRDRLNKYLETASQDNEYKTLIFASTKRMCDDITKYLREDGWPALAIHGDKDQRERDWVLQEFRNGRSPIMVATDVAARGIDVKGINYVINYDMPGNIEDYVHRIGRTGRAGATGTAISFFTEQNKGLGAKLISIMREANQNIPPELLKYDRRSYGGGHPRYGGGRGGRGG

Dbp2 53-546 = Dbp2 53-546 (Saccharomyces cerevisiae, UniProt P24783 53-546); assay: as above; settings: protein: recombinant; tags: His6-MBP removed by TEV; label: 3' FAM; G4
Dbp2 53-546, sequence (P24783 53-546): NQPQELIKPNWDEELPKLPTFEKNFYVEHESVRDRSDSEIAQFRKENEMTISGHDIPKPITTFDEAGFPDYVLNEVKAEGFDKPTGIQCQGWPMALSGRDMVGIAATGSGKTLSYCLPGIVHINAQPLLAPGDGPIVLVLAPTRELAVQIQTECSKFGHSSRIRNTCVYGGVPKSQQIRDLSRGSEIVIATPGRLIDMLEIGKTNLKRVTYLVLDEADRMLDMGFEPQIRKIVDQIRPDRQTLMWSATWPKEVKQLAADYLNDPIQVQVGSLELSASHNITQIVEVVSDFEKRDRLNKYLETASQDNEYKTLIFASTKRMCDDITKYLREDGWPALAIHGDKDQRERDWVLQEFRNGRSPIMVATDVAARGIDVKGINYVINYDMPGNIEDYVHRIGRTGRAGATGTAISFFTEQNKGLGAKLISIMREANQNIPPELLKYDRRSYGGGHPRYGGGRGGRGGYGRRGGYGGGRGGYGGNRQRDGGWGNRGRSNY

MBP-Dbp2 1-52 = target: T4, MBP-Dbp2 1-52 (Saccharomyces cerevisiae, UniProt P24783 1-52); assay: as above; settings: protein: recombinant; tags: MBP fusion; label: 3' FAM; G4
T4 sequence: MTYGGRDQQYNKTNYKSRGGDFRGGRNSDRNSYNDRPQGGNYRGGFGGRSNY

MBP-Dbp2 497-546 = target: T5, MBP-Dbp2 497-546 (Saccharomyces cerevisiae, UniProt P24783 497-546); assay: as above; settings: protein: recombinant; tags: MBP fusion; label: 3' FAM; G4
T5 chain: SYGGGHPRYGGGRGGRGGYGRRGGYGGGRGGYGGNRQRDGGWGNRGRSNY

[4] = label: 3' FAM on DNA strand, blunt

Nc1ncnc2c1ncn2[C@@H]1O[C@H](COP(=O)(O)OP(=O)(O)OP(=O)(O)O)[C@@H](O)[C@H]1O [ATP]
coupled spectrophotometric ATPase assay [1]: The RNA-dependent ATPase activities of Dbp2 were measured using a coupled spectrophotometric ATPase assay
ATPase activity assay kit (free phosphate, 620 nm) [2]: the R495A/R496A double mutant also showed increased ATPase activity in vitro

Nc1ncnc2c1ncn2[C@@H]1O[C@H](COP(=O)(O)OP(=O)(O)O)[C@@H](O)[C@H]1O [ADP]
single-molecule FRET, Cy3/Cy5 on C141 and C373 [3]: The FRET distribution of Dbp2-ADP was similar to that of Dbp2-ADP·AlF4 except for a decrease

B1: D-D12 (dsDNA)
DNA 1: CGTCGAGCAGAG
DNA 2: CTCTGCTCGACG
Kd (Dbp2 WT; label: 3' FAM on strand 2, blunt): 178 ± 6.2 nM

B2: R/D-D12 (DNA:RNA)
RNA: CGUCGAGCAGAG
DNA: CTCTGCTCGACG
Kd (Dbp2 WT; [4]): 73.9 ± 3.93 nM

ACGGATGTCTAA (ssDNA) [D-S12]
Kd (Dbp2 WT; label: 3' FAM): 105 ± 1.9 nM

UUUUUUUUUUCUCUGCUCGACG (ssRNA) [R-S22]
binding result (Dbp2 53-496): no binding
Kd (Dbp2 1-530): 33.7 ± 6.63 nM
Kd (Dbp2 WT; label: 3' FAM): 15.8 ± 0.66 nM
Kd (Dbp2 1-524): 38.8 ± 4.35 nM
binding result (Dbp2 118-466): no binding
Kd (Dbp2 1-514): 214 ± 18.4 nM

GGGUUAGGGUUAGGGUUAGGG (structured_RNA) [R-G4Tel]
Kd (Dbp2 53-546): 18.8 ± 0.56 nM
Kd (MBP-Dbp2 1-52): 26 ± 1.5 nM
Kd (MBP-Dbp2 497-546): 36.3 ± 5.1 nM
binding result (Dbp2 53-496; G4): no binding
Kd (Dbp2 1-530; G4): 19.2 ± 2.17 nM
Kd (Dbp2 WT; label: 3' FAM, G4): 12.2 nM and 12.7 nM
Kd (Dbp2 1-524; G4): 27.9 ± 2.66 nM
binding result (Dbp2 118-466; G4): no binding
Kd (Dbp2 1-514; G4): 63.5 ± 8.45 nM

CUCUGCUCGACG (ssRNA) [R-S12]
Kd (Dbp2 WT; label: 3' FAM): 72.1 ± 5.09 nM

B3: R/D-D16 (DNA:RNA)
RNA: GAUCGUGACAUCCUUA
DNA: TAAGGATGTCACGATC
Kd (Dbp2 WT; [4]): 40.6 ± 4.65 nM

— PMC10193013, “Nonstructural N- and C-tails of Dbp2 confer the protein full helicase activities” (The Journal of Biological Chemistry, 2023)
